According to the supplement of paper PMC7125110:
± gives the standard error. Variants at the floor of the assay were thinned out.

B1: glmS ribozyme (parent)
chain: AUAAAAGCGCCAGAACUACAGAAAUGUAGUUGACGAGGAGGAGGUUUAUCGAAUUUUCGGCGGAUGCCUCCAAA

Variants of: B1
Assay: self-cleavage kobs at 2500 uM GlcN6P; higher = faster cleavage; RNA array
Details: with glucosamine-6-phosphate
Method in brief: (§1)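 Ribozyme variants carrying barcodes were transcribed in situ on sequenced MiSeq chips by E. coli RNA polymerase and tracked at 37 °C with a hybridised Cy3 probe. They were exposed to 40 μM to 10 mM glucosamine-6-phosphate in HEPES/KCl/Mg(OAc)2 buffer. kobs came from exponential decay fits of normalised per-tile medians, and kcat and KM from weighted Michaelis–Menten fits.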

Variant	self-cleavage kobs at 2500 uM GlcN6P [s⁻¹]
AUAAAAGCGCCAGAACUACAGAAAUGUAGUCAACGAGCAGGAAGUUUAUCGAAUUUUCGGCGGAUGCCUCCAAA [U31C G32A G38C G43A]	< 1e-05
AUAAAAGCGCCAGAACUACAGAAAUGUAGUGGACGAGGAGGAGGCUUAUCGAAUUUUCGGCGGAUGCCUCCAAA [U31G U45C]	0.000406 ± 0.00014
AUAAAAGCGCCAGAACUACAGAAAUGUAGGUGACGAAGAGGUGGUUUAUCGAAUUUUCGGCGGAUGCCUCCAAA [U30G G37A A42U]	6.68e-05 ± 1.2e-05
AUAAAAGCGCCAGAACUACAGAAAUGUAGUAGACGAGGAGGAGGUCUAUCGAAUUUUCGGCGGAUGCCUCCAAA [U31A U46C]	0.000756 ± 0.00018
AUAAAAGCGCCAGAACUACAGAAAUGUAGGUGACGAGGAGGAGGUUUAUCGAAUAUUCGGGGGAUGCCUCGAAA [U30G U55A C61G C71G]	5.45e-05 ± 2.4e-05
AUAAAAGCGCCAGAACUACAGAAAUGUAGGUGACGAGGAGGAGGUUUAUCGACAUUUCGGCGGAUGCCUCCAAA [U30G A53C U54A]	0.000695 ± 0.00017
AUAAAAGCGCCAGAACUACAGAAAUGUACUUGACGAGGAGGAUGUUUAUCGAAUUUUCGGCCGAUGCCUCCAAA [G29C G43U G62C]	< 1e-05
AUAAAAGCGCCAGAACUACAGAAAUGUAGUUGCCGAGGAGGAGGUUUAUCGAUGUUUCGGCGGAUGCCUCCAAA [A33C A53U U54G]	0.000173 ± 4.3e-05
AUAAAAGCGCCAGAACUACAGAAAUGUAGUCGACGACGAGGAGGUUUGGCGAACUUUCGGCGGAUGCCUCAAAA [U31C G37C A48G U49G U54C C71A]	< 1e-05
AUAAAAGCGCCAGAACUACAGAAAUGUAGUUAACGAGGAGGAGGUUUAUCUAAUUUUCGGCGGAUGCCUCCAAA [G32A G51U]	< 1e-05
AUAAAAGCGCCAGAACUACAGAAAUGUAGUUUACGAGGAGGAGGUUUAUCGAAUGUUCGGCGGAUGCCUUCAAA [G32U U55G C70U]	0.000141 ± 5e-05
AUAAAAGCGCCAGAACUACAGAAAUGUAGCCGACGAGGAGGAGGUUUAUCGAUUAUUCGGCGGAUGCCUCCAAA [U30C U31C A53U U55A]	0.00034 ± 7.2e-05
AUAAAAGCGCCAGAACUACAGAAAUGUAGUUGCCGAGGAGGAGGUUUAUCGAAUUUUCCGCGGGUACCUACAAA [A33C G59C A64G G66A C70A]	< 1e-05
AUAAAAGCGCCAGAACUACAGAAAUGUAGUCGACGAGGAGGAGGUUUAUCGAAUUCUCGGCGGAUGCCUGCAAA [U31C U56C C70G]	< 1e-05
AUAAAAGCGCCAGAACUACAGAAAUGUAGUUGCCGAGGAGGAGGUUUAUCGAAUUUUCGUCCGAUGCCUCCAAA [A33C G60U G62C]	< 1e-05
AUAAAAGCGCCAGAACUACAGAAAUGUAGAUGACGAGGAAGAGGUUUAUCGAAUUUUCGGCGGAUGCCUCAAAA [U30A G40A C71A]	0.00142 ± 0.0005
AUAAAAGCGCCAGAACUACAGAAAUGUAGUGGACGAGCAGGAGGUCUAUCGAAUUUUCGGCGGAGGCCUCCAAA [U31G G38C U46C U65G]	< 1e-05

Variant	self-cleavage kobs at 2500 uM GlcN6P [s⁻¹]
AUAAAAGCGCCAGAACUACAGAAAUGUAGUGGACGAGGAGAAGGUUUAUCGAAUUUUCGGCGUAUGCCUCCAAA [U31G G41A G63U]	< 1e-05
AUAAAAGCGCCAGAACUACAGAAAUGUAGAUGACGAGGAGGAGGUUUAUCGAAUUAUCGUCGGAUGCCUCCAAA [U30A U56A G60U]	< 1e-05
AUAAAAGCGCCAGAACUACAGAAAUGUACUUGACGAGGAGGAGGUUUAGCGAAUUUUCGGUGGAUGCCUCCAAA [G29C U49G C61U]	< 1e-05
AUAAAAGCGCCAGAACUACAGAAAUGUAGUUGCCGAGGAUGAGGUUUAUCGAAUUUUCGGCAGAUGCCUGCAAA [A33C G40U G62A C70G]	< 1e-05
AUAAAAGCGCCAGAACUACAGAAAUGUAGUGAACGAGGAGGAGGUUUAUCGAAUUGUCGGCGGAUGCCUCCAAA [U31G G32A U56G]	9.1e-05 ± 2.5e-05
AUAAAAGCGCCAGAACUACAGAAAUGUAGGUGACGAGGAGGAUGAUUAUCGAAUUUUCGGCGGAUGCUUCCAAA [U30G G43U U45A C68U]	0.000375 ± 9.4e-05
AUAAAAGCGCCAGAACUACAGAAAUGUAGUUCCCGACGAGGAGGUUUCUCGAAUUUUCGGCGGAUGCCUCUAAA [G32C A33C G37C A48C C71U]	< 1e-05
AUAAAAGCGCCAGAACUACAGAAAUGUAGUGUACGAGGAGGAGGUUUAUCGAAUUUUUGGCGGAUGCCUCCAAA [U31G G32U C58U]	8.74e-05 ± 2.9e-05
AUAAAAGCGCCAGAACUACAGAAAUGUAGUCGAAGAGGAGUAGGUUUAUCGAAUUUGCGCCGGAUGCCUCCAAA [U31C C34A G41U U57G G60C]	< 1e-05
AUAAAAGCGCCAGAACUACAGAAAUGUAGUUCACGAGGAGGAGGUUUAUCGAAUUUUCGGCGGGUGCCUACAAA [G32C A64G C70A]	< 1e-05
AUAAAAGCGCCAGAACUACAGAAAUGUAGAUGACGAGGAGGAGGUUUAUGGAAUUAUCGGCGGAUGUCUCCAAA [U30A C50G U56A C67U]	7.78e-05 ± 1.9e-05
AUAAAAGCGCCAGAACUACAGAAAUGUAGGUGACGAGGAGGAUGUUUAUCGGAUUUUCGGCGGAUGACGCCAAA [U30G G43U A52G C67A U69G]	< 1e-05
AUAAAAGCGCCAGAACUACAGAAAUGUAGUUCACGAGGAGGAGGUUUAUCGAAUUUUCGGCGGAUUCCUACAAA [G32C G66U C70A]	< 1e-05
AUAAAAGCGCCAGAACUACAGAAAUGUAGGUGACGAGGAGGAGGUUUAUCGAAUUGUCGGCGGAUGCCUCAAAA [U30G U56G C71A]	0.000262 ± 6.3e-05
AUAAAAGCGCCAGAACUACAGAAAUGUAGUUGCCGAGGAUGAGGUUUAUCUAAAUUUCGGCGGAUGCCUCCAAA [A33C G40U G51U U54A]	< 1e-05
AUAAAAGCGCCAGAACUACAGAAAUGUAUUUGACGAGGAGGAGGUUUAUCGAAUUUACGGCGGAUGCGUCCAAA [G29U U57A C68G]	8.07e-05 ± 2.8e-05
AUAAAAGCGCCAGAACUACAGAAAUGUAGUGAACGAGGAGGAGGUGUAUCGUAUUUUCGGCGGAUGCCUCCAAA [U31G G32A U46G A52U]	< 1e-05

Variants of: B1
Assay: self-cleavage kobs at 10000 uM GlcN6P; higher = faster cleavage; RNA array
Details: with glucosamine-6-phosphate
Method in brief: as §1

Variant	self-cleavage kobs at 10000 uM GlcN6P [s⁻¹]
AUAAAAGCGCCAGAACUACAGAAAUGUAGGUGACGAAGAGGUGGUUUAUCGAAUUUUCGGCGGAUGCCUCCAAA [U30G G37A A42U]	9.36e-05 ± 2.3e-05
AUAAAAGCGCCAGAACUACAGAAAUGUAGUUGCCGAGGAGGAGGUUUAUCGAAUUUUCCGCGGGUACCUACAAA [A33C G59C A64G G66A C70A]	< 1e-05
AUAAAAGCGCCAGAACUACAGAAAUGUAGUGAACGAGGAGGAGGUUUAUCGAAUUGUCGGCGGAUGCCUCCAAA [U31G G32A U56G]	0.000522 ± 9.3e-05
